The term Kd denotes the concentration at which binding is half-saturated.

Results on five molecules are retold here after paper PMC5568661.

Where two headings read alike, the source gives them in different places.

Holding throughout (assay): NMR 15N-HSQC titration
In data set [1] the target is T1, Ets-1 ΔN301 (murine, UniProt P27577 301-440).
T1 sequence: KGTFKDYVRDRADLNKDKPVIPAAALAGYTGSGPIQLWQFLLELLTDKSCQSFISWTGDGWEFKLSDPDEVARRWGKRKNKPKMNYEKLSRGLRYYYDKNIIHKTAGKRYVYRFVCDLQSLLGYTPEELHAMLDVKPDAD

For data set [2], the target named is T1, Ets-1 ΔN301. The source holds these as a separate data set.
The target in data set [3] is T1, Ets-1 ΔN301. This is another data set of the same source.
The target of data set [4] is T1, Ets-1 ΔN301. The source holds these as a separate data set.
The target in the next data set is T2, Ets-1 ΔN279 (murine, UniProt P27577 279-440).
T2 sequence: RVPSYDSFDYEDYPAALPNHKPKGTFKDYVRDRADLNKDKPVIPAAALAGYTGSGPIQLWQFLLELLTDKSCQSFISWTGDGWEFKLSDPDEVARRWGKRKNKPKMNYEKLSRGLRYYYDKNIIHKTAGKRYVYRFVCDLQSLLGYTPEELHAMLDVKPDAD

B1: DNANSP9 (dsDNA)
DNA 1: GCACTCTAG
DNA 2: CTAGAGTGC
On to B1, for which the Kd with Ets-1 ΔN301 [1] is about 10 µM.

B2: DNANSP15 (dsDNA)
DNA 1: GATGCAGTGTAGTCG
DNA 2: CGACTACACTGCATC
On to B2, for which, in the data set with Ets-1 ΔN301 [2], the Kd was under 10 µM.

B3: DNASP12 (dsDNA)
DNA 1: CAGCCGGAAGTG
DNA 2: CACTTCCGGCTG
Turning to B3, the binding result with Ets-1 ΔN301 [3] was “binds”.

B4: DNASP9 (dsDNA)
DNA 1: GCCGGAAGT
DNA 2: ACTTCCGGC
In the case of B4, the binding result with Ets-1 ΔN301 [4] is reported as “binds”.

B5: DNASP14 (dsDNA)
DNA 1: CCAAGCCGGAAGTG
DNA 2: CACTTCCGGCTTGG
Turning to B5, the binding result in the data set with Ets-1 ΔN279 is on record as “binds”.
